Assay results reported in paper doi:10.1101/865998 (bioRxiv, 2019).
Values joined by “and” are separate entries in the source; they are usually repeats but may differ in a detail not shown here. Identical values can stand only once. No end group written: not given here.

How the values were obtained:
[1] = biological target: TM24 peptide expressed as a EYFP fusion in COS cells; assay: FRAP
[2] = biological target: the molecule itself; assay: SDS-PAGE without cross-linker
native gel or EMSA = biological target: the molecule itself; assay: native gel or EMSA
FRAP = biological target: the molecule itself; assay: FRAP

TM24 peptide expressed as a EYFP fusion in COS cells (domain or fragment)
stoichiometry N [1]: 7

KKVGLLAFLGLLFCLGVAMFTYKK [TM24 peptide (20 residues of the CX3CL1 TM domain with 2 lysines added at each end)]
stoichiometry N [2]: 2

B1: CX3CL1-EYFP fusion protein (L929 cells stably expressing CX3CL1, L_(CX3CL1)) (natural protein)
chain: QHHGVTKCNITCSKMTSKIPVALLIHYQQNQASCGKRAIILETRQHRLFCADPKEQWVKDAMQHLDRQAAALTRNGGTFEKQIGEVKPRTTPAAGGMDESVVLEPEATGESSSLEPTPSSQEAQRALGTSPELPTGVTGSSGTRLPPTPKAQDGGPVGTELFRVPPVSTAATWQSSAPHQPGPSLWAEAKTSEAPSTQDPSTQASTASSPAPEENAPSEGQRVWGQGQSPRPENSLEREEMGPVPAHTDAFQDWGPGSMAHVSVVPVSSEGTPSREPVASGSWTPKAEEPIHATMDPQRLGVLITPVPDAQAATRRQAVGLLAFLGLLFCLGVAMFTYQSLQGCPRKMAGEMAEGLRYIPRSCGSNSYVLVPV
stoichiometry N (native gel or EMSA): ~3 and 5 and ≥ 3

KKVGLLAFLGLLFCLGVAMFTYKK (also: FITC conjugated, position not given here) [TM24-FITC]
binding result (FRAP): binds
